The values that follow come from US20160032004A1 (published 2016).

For test [1], the target named is T1, CD74 (invariant chain, Ii) (human, UniProt P04233 1-296).
T1 construct: whole, on cells; Endogenous antigen of human cancer cell lines; measured on the surface only or on surface plus cytoplasm (permeabilized cells)
T1 sequence (looked up): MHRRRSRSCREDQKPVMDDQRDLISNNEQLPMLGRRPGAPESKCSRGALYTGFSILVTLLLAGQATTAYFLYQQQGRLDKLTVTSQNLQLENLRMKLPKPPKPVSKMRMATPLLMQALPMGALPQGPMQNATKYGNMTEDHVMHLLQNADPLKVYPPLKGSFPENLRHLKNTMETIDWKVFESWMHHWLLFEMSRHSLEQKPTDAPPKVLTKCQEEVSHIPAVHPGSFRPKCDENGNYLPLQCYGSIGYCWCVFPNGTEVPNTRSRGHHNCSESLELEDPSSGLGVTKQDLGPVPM
The test can be described thus: flow cytometry, membrane-only, A-375 cells. (In flow cytometry, cells or beads pass a laser one at a time.)

Test [2] addresses T1, CD74 (invariant chain, Ii). The test can be described thus: flow cytometry, permeabilized NCI-N87 cells.
Test [3] has as its target T1, CD74 (invariant chain, Ii). The test can be described thus: flow cytometry, membrane-only, Capan-1 cells.
Test [4] addresses T1, CD74 (invariant chain, Ii). The test can be described thus: flow cytometry, membrane-only, HuH-7 cells.
The target in test [5] is T1, CD74 (invariant chain, Ii). The test can be described thus: flow cytometry, permeabilized Capan-1 cells.
The target in test [6] is T1, CD74 (invariant chain, Ii). The test can be described thus: flow cytometry, permeabilized HuH-7 cells.
Test [7] concerns the target T1, CD74 (invariant chain, Ii). The test can be described thus: flow cytometry, permeabilized Raji cells.
Test [8] addresses T1, CD74 (invariant chain, Ii). The test can be described thus: flow cytometry, membrane-only, Hs746T cells.
Test [9] has as its target T1, CD74 (invariant chain, Ii). The test can be described thus: flow cytometry, permeabilized Hs746T cells.
Test [10] deals with T1, CD74 (invariant chain, Ii). The test can be described thus: flow cytometry, permeabilized A-375 cells.
The target in test [11] is T1, CD74 (invariant chain, Ii). The test can be described thus: flow cytometry, permeabilized Hep-G2 cells.
Test [12] has as its target T1, CD74 (invariant chain, Ii). The test can be described thus: cell binding assay on antigen-positive cells.
The target of test [13] is T1, CD74 (invariant chain, Ii). The test can be described thus: flow cytometry, membrane-only, Raji cells.
Test [14] concerns the target T1, CD74 (invariant chain, Ii). The test can be described thus: flow cytometry, membrane-only, NCI-N87 cells.
Test [15] concerns the target T1, CD74 (invariant chain, Ii). The test can be described thus: flow cytometry, membrane-only, Hep-G2 cells.

B1: Milatuzumab (humanized anti-CD74 antibody, hLL1) (antibody, V domains shown)
VH: QVQLQQSGSELKKPGASVKVSCKASGYTFTNYGVNWIKQAPGQGLQWMGWINPNTGEPTFDDDFKGRFAFSLDTSVSTAYLQISSLKADDTAVYFCSRSRGKNEAWFAYWGQGTLVTVSS
VL: DIQLTQSPLSLPVTLGQPASISCRSSQSLVHRNGNTYLHWFQQRPGQSPRLLIYTVSNRFSGVPDRFSGSGSGTDFTLKISRVEAEDVGVYFCSQSSHVPPTFGAGTRLEIK
B1: the “MFI Ratio hLL1:bkgd (surface)” value in test [1] was 5.3; in [3], 1.8; in test [4], 1.6; in test [8], 2.1; in [13], 19.6; in test [14], 1.3. Moreover, in test [15], the “MFI Ratio hLL1:bkgd (surface)” value is 1.5. The “MFI Ratio hLL1:bkgd (surface and cytoplasmic)” value in test [2] came to 36.7; in test [5] it was 49.6; in test [6] it was 28.5; in test [7] it was 28.6; in test [9], 28.8; in [10], 30.8. In test [11], the “MFI Ratio hLL1:bkgd (surface and cytoplasmic)” value was 31.2. In addition, in test [12], the Kd came out at 0.77 nM.

Usually Kd stands for the constant that tells how readily two partners part at equilibrium. A low value points to higher affinity.
